This is an account of results in US20170233449A1 (Teva, published 2017).

Positions count from the first letter of the chain named.

The labels stand for the following.
B1: R7F11 (rat hybridoma antibody) (antibody, V domains shown)
VH: QIQLVQSGPGLKKPGESVKISCKASGYTFTDYSMHWVKQAPGKGLQWMGWINTYSGKPTYAADFKGRFVFSLEASASTANLQISNLKNEDTATYFCARCYDGTFYYDPMDAWGQGTSVTVSS
VL: NIVLTQSPATLSVTPGESVSLSCRASQSIGTSIHWYQQKSNESPRLLIRYASQSISGIPSRFSGSGSGTDFTLSINRVESEDFSIYYCQQSYSSLVTFGSGTKLEIK
notes: tested as rat hybridoma supernatant; kappa light chain
B2: R5D1 (rat hybridoma antibody) (antibody, V domains shown)
VH: EVQLQQSGPEVGRPGSSVKISCKASGYTFTDYIMHWVKQSPGQGLEWIGWIDPEYGRTDYAEKFKKKATLTADTSSSTAYIQLSSLASEDTATYFCARSAHTTGFGFAYWGQGTLVTVSS
VL: DIQMTQSPASLSASLGETVTIECRASEDIYSNLAWYQQKPGNSPQLLIYDANSLADGVPSRFSASGSGTQFSLKINSLRSEDVASYFCQQYNNYPYTFGAGTKLELK
notes: as for B1
B3: R10A2 (rat hybridoma antibody) (antibody, V domains shown)
VH: EVQLQQSGPEVGRPGSSVKISCKASGYTFTDSVMNWVKQSPGQGLEWIGWIDPEYGRTDVAEKFKKKATLTADSSSSTAYIYLSGLTSEDTATYFCARTKYNSGYGFPYWGQGSLVTVSS
VL: DIVMTQSPTSISISVGERVTMNCKASQNVDSDVDWYQQKTGQSPKLLIYKASNRYTGVPDRFTGSGSGTDFTFTISNMQAEDLAVYYCMQSNTHPRTFGGGTKLELK
notes: as for B1
B4: R7H11 (rat hybridoma antibody) (antibody, V domains shown)
VH: QVQLKESGPGLLLSSETLSLTCTVSGFSLTSYEVSWVRQLPGRGLEWMGRVWIGGDTDYNSDLKSRLSISRDIAKSQVFLKMSNLKTEDTGTYYCARAYGFNYWSFDFWGPGTMVTVSS
VL: GQFTLTQPKSVSGSLRSTITIPCERSSGDIGDNYVTWYQQHLGRPPLNVIYADDQRPSEVSDRFSGSIDSSSNSASLTITNLQMDDEADYFCQSYDSNTDIIFGGGTKVTVL
notes: tested as rat hybridoma supernatant; lambda light chain
B5: R10B10 (rat hybridoma antibody) (antibody, V domains shown)
VH: QVQLKESGPGLVQPSETLSLTCTVSGFSLTSYGVNWVRQPPGKGLEWMGRIWNDGSIDYNSALKSRLSISRDTSKGQVFLKMNSLQTEDTAIYFCARGPYNNYWYFDFWGPGTMVTVLS
VL: B4 VL with T36S, L47I, T99I, V109L
notes: as for B4
B6: R5E8 (rat hybridoma antibody) (antibody, V domains shown)
VH: EVQLQQSGPEVGRPGSSVKISCKASGYIFTDYIMHWVKQSPGQGLEWIGWIDPEYGSTDYAEKFKKKATLTADTSSSTAYIQLSSLTSEDTATYFCARVAIITTVASGGFAYWGQGTLVTVSS
VL: DIVMTQGALPNPVPSGESASITCQSSESLLHSNGKTYLNWYLQRPGQSPQLLIYWMSTRAAGVSDRFSGSGSGTDFTLTISGVEAEDVGVYYCQQFLEYPPTFGSGTKLEIK
notes: as for B1
B7: X910/12 FAb (Fab, V domains shown)
VH: EVQLVQSGAEVKKSGASVKVSCKASGYTFTDYYIHWVRQAPGQGLEWMGWINPNNGGVTFAQKFQGRVTMTRDTSISTAYMDLSSLRSDDTAVYFCARDIRMSGWLAPFDYWGQGTLVTVSS
VL: QAVLTQPASLSASPGESARLTCTLPSDINVRYYNIYWYQQKPGSPPRYLLYYYSDSHKDQGSGVPSRFSGSKDTSANTGILLISGLQSEDEADYYCMIWASNGSGVLGGGTQLTVL
notes: human Fab from E. coli lysate, V5 tag at the C-terminus of the Fab heavy chain
B8: X355/01 FAb (Fab, V domains shown)
VH: QVQLVQSGAEVKKPGSSVKVSCKASGGNFISYSISWVRQAPGKRLEWMGWIIPIFGTTTYVQKFQGRVTITADESTSTAYMELSSLRSEDTAVYYCARVKYGSGSYYPNNWFDPWGQGTLVTVSS
VL: EIVLTQSPATLSASPGERATLSCRASQSISSNLAWYQQKPGQAPRLLIQDSSTRATGIPARFSGSGSGTEFTLTISSLQSEDFAVYYCQQSDNWPLTFGGGTKVDIK
notes: as for B7
B9: X913/15 FAb (Fab, V domains shown)
VH: QVQLVESGGGVVQGGGSLRLSCAASGFTVRSNYMSWVRQAPGKGLEWVSAISGSGDSTYYADSVKGRFTISRDNSKNTLYLQMNSLRAEDTAVYYCAKVAVTTGWYFDLWGRGTLVTVSS
VL: QAVLTQPASLSASPGESARLTCTLPSDINVRYHNIYWYQEKPGSPPRYLLYYYSDSSKGQGSGVPSRFSGSKDVSTNTGILVISGLQSEDEAEYYCMTWSSNGSGVFGGGTQLTVL
notes: as for B7
B10: X355/04 FAb (Fab, V domains shown)
VH: QVQLVQSGAEVKKPGSSVKVSCKASGGTFSSYAISWVRQAPGQGLEWMGGIIPIFGTANYAQKFQGRVTITADESTSTAYMELSSLRSEDTAVYYCARDSSSWYFTYGYFQHWGQGTLVTVSS
VL: DVVMTQSPLSLPVTPGEPASISCRSSQSLLNSNGYNYLEWYVQKPGQSPQLLIFLGSNRASGVPDRFSGSGSGTDFTLKINRVEAEDVGVYYCMQALQSPLTFGGGTKVEIK
notes: as for B7
B11: R5D1 IgG1 (antibody, V domains shown)
VH: B2 VH
VL: DIQMTQSPASLSASLGETVTIECRASEDIYSNLAWYQQKPGNSPQLLIYDANSLADGVPSRFSASGSGTQFSLKINSLRSEDVASYFCQQYNNYPYTFGAGTKLELKR
notes: chimeric rat-human IgG1
B12: X355/07 IgG1 (antibody, V domains shown)
VH: QVQLQESGPGLVKPSETLSLTCAVYGGSFSGYYWSWIRQPPGKGLEWIGSIYHSGSTYYNPSLKSRVTISVDTSKNQFSLKLSSVTAADTAVYYCARDLYYYYGMDVWGQGTTVTVSS
VL: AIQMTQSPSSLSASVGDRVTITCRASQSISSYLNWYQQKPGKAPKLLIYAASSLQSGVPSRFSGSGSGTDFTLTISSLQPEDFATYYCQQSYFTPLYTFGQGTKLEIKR
notes: human IgG1 from phage-derived Fab
B13: X355/02 IgG1 (antibody, V domains shown)
VH: QLQLQESGPGLVKPSETLSLTCTVSGGSISSSSYYWSWIRQHPGKGLEWIGYIYYSGSTNYNPSLKSRVTISVDTLKNQISLRLTSVTAADTAVYYCARVGGAGGWPMDVWGQGTTVTVSS
VL: QAVLTQPASLSASPGESARLTCTLPSDINVRYYNIYWYQQKPGSPPRYLLYYYSDSHKGQGSGVPSRFSGSKDVSTNSGILLISGLQSEDEADYYCMTWSSNGSGVFGGGTQLTVLG
notes: as for B12
B14: R10A2 IgG1 (antibody, V domains shown)
VH: B3 VH
VL: DIVMTQSPTSISISVGERVTMNCKASQNVDSDVDWYQQKTGQSPKLLIYKASNRYTGVPDRFTGSGSGTDFTFTISNMQAEDLAVYYCMQSNTHPRTFGGGTKLELKR
notes: chimeric rat-human IgG1
B15: R5E8 IgG1 (antibody, V domains shown)
VH: B6 VH
VL: DIVMTQGALPNPVPSGESASITCQSSESLLHSNGKTYLNWYLQRPGQSPQLLIYWMSTRAAGVSDRFSGSGSGTDFTLTISGVEAEDVGVYYCQQFLEYPPTFGSGTKLEIKR
notes: chimeric rat-human IgG1
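For Kd in this document: CM5 sensor chip in HBS-P buffer at pH 7.4, antibody loaded at 5 µg/mL, responses corrected against a blank reference flow cell before fitting.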
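For koff in this document: CM5 sensor chip in HBS-P buffer at pH 7.4, antibody loaded at 5 µg/mL, responses corrected against a blank reference flow cell before fitting.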
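For kon in this document: CM5 sensor chip in HBS-P buffer at pH 7.4, antibody loaded at 5 µg/mL, responses corrected against a blank reference flow cell before fitting.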

One assay has as its target human CD38 on cells (human, UniProt P28907 1-300). The assay is described as follows: flow cytometry, hybridoma supernatant on RPMI-8226 cells; background MFI average 153. In general terms: Flow cytometry measures light scatter and fluorescence of single cells or particles in a stream.
Description: Viable RPMI-8226 cells (2×10⁵, as judged by trypan blue exclusion) were incubated with 100 μL of rat hybridoma supernatant for 20 minutes on ice in the dark. Cells were washed twice with FACS buffer (1× PBS plus 1% FCS) before incubation for 20 minutes in 100 μl of FACS buffer containing anti-rat IgG-FITC conjugate (Sigma-Aldrich). After washing cells in FACS buffer, they were resuspended in FACS buffer and analysed for antibody-binding by flow cytometry on a FACS Canto (BD Biosciences, San Diego, Calif.) using EV, side scatter and FL-1 gating. Results were expressed as mean fluorescent intensity (MFI).
B1 yielded an MFI of 11900 MFI.

For B2, the MFI is 12200 MFI.

The molecule B3 gave an MFI of 4470 MFI.

Regarding B4, the MFI stood at 680 MFI.

B5: the MFI was found to be 858 MFI.

In turn, B6 yielded an MFI of 10600 MFI.

In the next assay the target is T1, cynomolgus monkey CD38 extracellular domain (ECD), tagged (cynomolgus monkey, Avitag biotinylated (in the ELISAs)).
T1 construct: also called cynomolgus monkey CD38 ED
T1 chain: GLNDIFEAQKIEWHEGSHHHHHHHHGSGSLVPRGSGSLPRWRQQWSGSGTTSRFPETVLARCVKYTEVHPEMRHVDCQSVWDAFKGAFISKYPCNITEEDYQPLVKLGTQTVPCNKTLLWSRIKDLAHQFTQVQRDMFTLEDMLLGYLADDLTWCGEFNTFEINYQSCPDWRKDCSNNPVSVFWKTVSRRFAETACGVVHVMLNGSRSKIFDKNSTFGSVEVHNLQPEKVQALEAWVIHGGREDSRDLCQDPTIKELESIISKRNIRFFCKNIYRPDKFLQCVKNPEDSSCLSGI
The assay is described as follows: ELISA, hybridoma supernatant coated, biotinylated CD38 ED in solution.
Description: (§1) Following incubation for 1 hour at room temperature, plates were washed as described previously. To one well of each rat antibody duplicate well was added 0.1 μg of biotinylated human CD38 in a final volume of 100 μL 1× PBS. To the second well of each rat antibody duplicate well was added 0.1 μg of biotinylated cynomolgus monkey CD38 ED in a final volume of 100 μL 1× PBS. Plate wells were washed as described previously prior to detection of bound biotinylated CD38 ED using a Streptavidin-HRP conjugate (BD Biosciences, San Diego, Calif.). Plates were washed as above to remove unbound Streptavidin-HRP conjugate and the assay signal developed by incubation with 50 μL 3,3′,5,5′-Tetramethylbenzidine (Sigma-Aldrich) and quenching with 50 μL 1 M HCl. Assay signals were read at A₄₅₀ nm using a microplate reader (BMG Labtech, Cary, N.C.).
As for B1, the binding result is recorded as “binds”.

The target in a further assay is T2, human CD38 extracellular domain (ECD), tagged (human, Avitag biotinylated (in the ELISAs)).
T2 construct: also called human CD38 ED; biotinylated human CD38
The assay is described as above.
Description: as §1
As for B1, the binding result was “binds”.

Another assay deals with T1, cynomolgus monkey CD38 extracellular …. The assay is described as follows: ELISA, biotinylated CD38 ED on streptavidin plates, FAb lysate, anti-V5-HRP. For orientation: An ELISA detects its analyte on a solid surface through an enzyme-linked reagent.
Description: (§2) Plates were then washed and individual FAb samples (prepared as described above) were added to individual wells on the ELISA plates. FAbs were allowed to bind the captured CD38 ED for an hour at room temperature and then washed three times with PBS-T (1× PBS supplemented with 0.1% Tween®20). FAbs that bound to CD38 ED were detected by incubation for 30 minutes at room temperature with an anti-V5-HRP conjugated antibody (Invitrogen, Carlsbad, Calif.) to detect the V5 tag fused to the C-terminus of the FAb heavy chain. Plates were washed to remove unbound antibody and the assay signal developed by incubation with 50 μL 3,3′,5,5′-Tetramethylbenzidine (Sigma-Adrich, St. Louis, Mo.) and quenching with 50 μL 1 M HCl. Assay signals were read at A450 nm using a microplate reader (BMG Labtech). Results were expressed as the raw A450 nm value, where any signal 2-fold greater than the average assay background was defined as ‘positive’.
(§3) In later assays FAb cross-reactivity with cynomolgus monkey CD38 ED was assessed by coating biotinylated cynomolgus monkey CD38 ED onto streptavidin coated ELISA plates and proceeding as described above.
Take B7: the binding result is “binds”.

For B8, the binding result is “binds”.

B9: the binding result is reported as “binds”.

For the molecule B10, the binding result was “binds”.

A further assay deals with T2, human CD38 extracellular domain (ECD), …. Described as above.
Description: as §2, §3
As to B7, the binding result is recorded as “binds”.

In the case of B8, the binding result is reported as “binds”.

Regarding B9, the binding result is “binds”.

With B10, the binding result was “binds”.

A further assay has as its target T1, cynomolgus monkey CD38 extracellular …. The assay is described as follows: SPR (Biacore T200), antibody captured on Protein A, CD38 ED as analyte, 1:1 Langmuir fit. (Surface plasmon resonance follows binding to a sensor surface in real time, without labels.)
Description: (§4) Briefly, using a Biacore T200, Protein A was immobilized onto Flow Cell (FC) 1 (FC1) and FC2 (or alternatively FC3 and FC4) of a CM5 research grade sensor chip using amine coupling, giving approximately 2000 RU. FC1 was used as a blank throughout the experiments. The experiments were run in HBS-P buffer (0.01 M HEPES pH 7.4, 0.15 M NaCl, 0.005% v/v Surfactant P20). At a flow rate of 20 μl/min, 20 μl of 5 μg/mL of antibody was passed over FC2. […] Regeneration of the surface was performed using 10mM Glycine, pH 1.0. The FC1 sensorgram data was subtracted from FCS and the curves were fitted using a 1:1 Langmuir equation to generate the kd, kₐ and KD values.
Molecule B11 came in with a dissociation constant (Kd) of 1 nM, a koff of 0.0011 s⁻¹ and a kon of 1.11e+06 M⁻¹ s⁻¹.

With B12, the affinity, expressed as Kd, was 12.2 nM; the koff turned out to be 0.0138 s⁻¹; the kon is 1.13e+06 M⁻¹ s⁻¹.

B13: the Kd is 27.4 nM, the koff worked out at 0.00228 s⁻¹ and the kon was 83400 M⁻¹ s⁻¹.

For the molecule B14, the Kd worked out at 2.2 nM, the koff is 0.00193 s⁻¹ and the kon is 898000 M⁻¹ s⁻¹.

In turn, B15 had a Kd of 4.2 nM, a koff of 0.0019 s⁻¹ and a kon of 452000 M⁻¹ s⁻¹.

Another assay concerns the target T2, human CD38 extracellular domain (ECD), …. The description is as above.
Description: as §4
Take B11: binding was characterised by a dissociation constant (Kd) of 1 nM, the koff worked out at 0.000239 s⁻¹ and the kon amounted to 243000 M⁻¹ s⁻¹.

B12 came in with a Kd of 11.4 nM, a koff of 0.00132 s⁻¹ and a kon of 115000 M⁻¹ s⁻¹.

For B13, binding was put at a Kd of 7.6 nM, the koff was 0.000892 s⁻¹ and the kon came to 118000 M⁻¹ s⁻¹.

Molecule B14 returned a Kd of 0.7 nM, a koff of 0.000479 s⁻¹ and a kon of 660000 M⁻¹ s⁻¹.

As for B15, the Kd amounted to 2.9 nM, the koff is 0.00118 s⁻¹ and the kon turned out to be 405000 M⁻¹ s⁻¹.

By Kd is commonly meant the free concentration of one partner at which half of the binding sites on the other are occupied at equilibrium, for simple one-to-one binding. Broadly, the koff is the first-order rate constant of dissociation. Usually kon stands for the second-order rate constant of association.
